Our source for the antithrombin activity by thrombin titration (bovine fibrinogen, fibrin clot within 1 min as endpoint, 37 °C, 50 mM Tris-HCl pH 7.4) values is publication PMC10042815.

In the test the target is thrombin (Sigma, Germany).

In turn, “recombinant hirudin from Hirudo nipponia (candidate hirudin gene c16237_g1) (natural protein)” registered an antithrombin activity by thrombin titration (bovine fibrinogen, fibrin clot within 1 min as endpoint, 37 °C, 50 mM Tris-HCl pH 7.4) of 14000 ATU/mL.
The value for “commercially available hirudin (MedChem Express) (natural protein)” was 12000 ATU/mL.
